From patent publication US20230407373A1 (priority 2020, published 2023)

B1: HNRNPM (protein, UniProt P52272 2-730, looked up)
Heterogeneous nuclear …: AAGVEAAAEVAATEIKMEEESGAPGVPSGNGAPGPKGEGERPAQNEKRKEKNIKRGGNRFEPYANPTKRYRAFITNIPFDVKWQSLKDLVKEKVGEVTYVELLMDAEGKSRGCAVVEFKMEESMKKAAEVLNKHSLSGRPLKVKEDPDGEHARRAMQKVMATTGGMGMGPGGPGMITIPPSILNNPNIPNEIIHALQAGRLGSTVFVANLDYKVGWKKLKEVFSMAGVVVRADILEDKDGKSRGIGTVTFEQSIEAVQAISMFNGQLLFDRPMHVKMDERALPKGDFFPPERPQQLPHGLGGIGMGLGPGGQPIDANHLNKGIGMGNIGPAGMGMEGIGFGINKMGGMEGPFGGGMENMGRFGSGMNMGRINEILSNALKRGEIIAKQGGGGGGGSVPGIERMGPGIDRLGGAGMERMGAGLGHGMDRVGSEIERMGLVMDRMGSVERMGSGIERMGPLGLDHMASSIERMGQTMERIGSGVERMGAGMGFGLERMAAPIDRVGQTIERMGSGVERMGPAIERMGLSMERMVPAGMGAGLERMGPVMDRMATGLERMGANNLERMGLERMGANSLERMGLERMGANSLERMGPAMGPALGAGIERMGLAMGGGGGASFDRAIEMERGNFGGSFAGSFGGAGGHAPGVARKACQIFVRNLPFDFTWKMLKDKFNECGHVLYADIKMENGKSKGCGVVKFESPEVAERACRMMNGMKLSGREIDVRIDRNA
B2: CNBP: host protein, UniProt P62633 (protein, UniProt P62633 2-177, looked up)
CCHC-type zinc finger nucleic …: SSNECFKCGRSGHWARECPTGGGRGRGMRSRGRGGFTSDRGFQFVSSSLPDICYRCGESGHLAKDCDLQEDACYNCGRGGHIAKDCKEPKREREQCCYNCGKPGHLARDCDHADEQKCYSCGEFGHIQKDCTKVKCYRCGETGHVAINCSKTSEVNCYRCGESGHLARECTIEATA
B3: EWSR1: host protein, UniProt Q01644 (protein, UniProt Q01844 1-656, looked up)
RNA-binding protein EWS: MASTDYSTYSQAAAQQGYSAYTAQPTQGYAQTTQAYGQQSYGTYGQPTDVSYTQAQTTATYGQTAYATSYGQPPTGYTTPTAPQAYSQPVQGYGTGAYDTTTATVTTTQASYAAQSAYGTQPAYPAYGQQPAATAPTRPQDGNKPTETSQPQSSTGGYNQPSLGYGQSNYSYPQVPGSYPMQPVTAPPSYPPTSYSSTQPTSYDQSSYSQQNTYGQPSSYGQQSSYGQQSSYGQQPPTSYPPQTGSYSQAPSQYSQQSSSYGQQSSFRQDHPSSMGVYGQESGGFSGPGENRSMSGPDNRGRGRGGFDRGGMSRGGRGGGRGGMGSAGERGGFNKPGGPMDEGPDLDLGPPVDPDEDSDNSAIYVQGLNDSVTLDDLADFFKQCGVVKMNKRTGQPMIHIYLDKETGKPKGDATVSYEDPPTAKAAVEWFDGKDFQGSKLKVSLARKKPPMNSMRGGLPPREGRGMPPPLRGGPGGPGGPGGPMGRMGGRGGDRGGFPPRGPRGSRGNPSGGGNVQHRAGDWQCPNPGCGNQNFAWRTECNQCKAPKPEGFLPPPFPPPGGDRGRGGPGGMRGGRGGLMDRGGPGGMFRGGRGGDRGGFRGGRGMDRGGFGGGRRGGPGGPPGPLMEQMGGRRGGRGGPGKMDKGEHRQERRDRPY
B4: TIAL1: host protein, UniProt Q01085 (protein, UniProt Q01085 1-375, looked up)
Nucleolysin TIAR: MMEDDGQPRTLYVGNLSRDVTEVLILQLFSQIGPCKSCKMITEHTSNDPYCFVEFYEHRDAAAALAAMNGRKILGKEVKVNWATTPSSQKKDTSNHFHVFVGDLSPEITTEDIKSAFAPFGKISDARVVKDMATGKSKGYGFVSFYNKLDAENAIVHMGGQWLGGRQIRTNWATRKPPAPKSTQENNTKQLRFEDVVNQSSPKNCTVYCGGIASGLTDQLMRQTFSPFGQIMEIRVFPEKGYSFVRFSTHESAAHAIVSVNGTTIEGHVVKCYWGKESPDMTKNFQQVDYSQWGQWSQVYGNPQQYGQYMANGWQVPPYGVYGQPWNQQGFGVDQSPSAAWMGGFGAQPPQGQAPPPVIPPPNQAGYGMASYQTQ
B5: RBM14: host protein, UniProt Q96PK6 (protein, UniProt Q96PK6 1-669, looked up)
RNA-binding protein 14: MKIFVGNVDGADTTPEELAALFAPYGTVMSCAVMKQFAFVHMRENAGALRAIEALHGHELRPGRALVVEMSRPRPLNTWKIFVGNVSAACTSQELRSLFERRGRVIECDVVKDYAFVHMEKEADAKAAIAQLNGKEVKGKRINVELSTKGQKKGPGLAVQSGDKTKKPGAGDTAFPGTGGFSATFDYQQAFGNSTGGFDGQARQPTPPFFGRDRSPLRRSPPRASYVAPLTAQPATYRAQPSVSLGAAYRAQPSASLGVGYRTQPMTAQAASYRAQPSVSLGAPYRGQLASPSSQSAAASSLGPYGGAQPSASALSSYGGQAAAASSLNSYGAQGSSLASYGNQPSSYGAQAASSYGVRAAASSYNTQGAASSLGSYGAQAASYGAQSAASSLAYGAQAASYNAQPSASYNAQSAPYAAQQAASYSSQPAAYVAQPATAAAYASQPAAYAAQATTPMAGSYGAQPVVQTQLNSYGAQASMGLSGSYGAQSAAAATGSYGAAAAYGAQPSATLAAPYRTQSSASLAASYAAQQHPQAAASYRGQPGNAYDGAGQPSAAYLSMSQGAVANANSTPPPYERTRLSPPRASYDDPYKKAVAMSKRYGSDRRLAELSDYRRLSESQLSFRRSPTKSSLDYRRLPDAHSDYARYSGSYNDYLRAAQMHSGYQRRM
B6: PSPC1: host protein, UniProt Q8WXF1 (protein, UniProt Q8WXF1 1-523, looked up)
Paraspeckle component 1: MMLRGNLKQVRIEKNPARLRALESAVGESEPAAAAAMALALAGEPAPPAPAPPEDHPDEEMGFTIDIKSFLKPGEKTYTQRCRLFVGNLPTDITEEDFKRLFERYGEPSEVFINRDRGFGFIRLESRTLAEIAKAELDGTILKSRPLRIRFATHGAALTVKNLSPVVSNELLEQAFSQFGPVEKAVVVVDDRGRATGKGFVEFAAKPPARKALERCGDGAFLLTTTPRPVIVEPMEQFDDEDGLPEKLMQKTQQYHKEREQPPRFAQPGTFEFEYASRWKALDEMEKQQREQVDRNIREAKEKLEAEMEAARHEHQLMLMRQDLMRRQEELRRLEELRNQELQKRKQIQLRHEEEHRRREEEMIRHREQEELRRQQEGFKPNYMENREQEMRMGDMGPRGAINMGDAFSPAPAGNQGPPPMMGMNMNNRATIPGPPMGPGPAMGPEGAANMGTPMMPDNGAVHNDRFPQGPPSQMGSPMGSRTGSETPQAPMSGVGPVSGGPGGFGRGSQGGNFEGPNKRRRY

Each molecule was assayed on HCoV-OC43 gRNA and sgRNA. Conditions: 36 hpi; type n_36_v; tested against no-probe control; FDR<10%.
Assay type: binding

Row | Molecule | target (unweighted spectral count, OC43 Probe II capture)
1 | B1 | 73
2 | B2 | 14
3 | B3 | 9
4 | B4 | 9
5 | B5 | 14
6 | B6 | 14

Same assay, conditions: OC43 Probe II, 12 hpi (type n_12_v), infected cells; tested against no-probe control

Row | Molecule | target (unweighted spectral count)
7 | B1 | 22
8 | B2 | 5
9 | B5 | 5
10 | B6 | 4

Same assay, conditions: OC43 Probe II, 24 hpi (type n_24_v), infected cells; tested against no-probe control

Row | Molecule | target (unweighted spectral count)
11 | B1 | 34
12 | B2 | 12
13 | B3 | 6
14 | B4 | 7
15 | B6 | 8

Same assay, conditions: type n_48_v; 48 hpi; OC43 Probe II capture on infected cells

Row | Molecule | target (unweighted spectral count, OC43 Probe II)
16 | B2 | 19
17 | B3 | 10
18 | B4 | 11
19 | B5 | 17
20 | B6 | 14

Same assay, conditions: type n_48_v; 48 hpi; no-probe control on infected cells

Row | Molecule | background (unweighted spectral count, no-probe control)
21 | B2 | 2
22 | B3 | 1
23 | B4 | 1
24 | B5 | 2
25 | B6 | 1

Same assay, conditions: type s_36_m; HCoV-OC43-infected HCT-8 cells, 36 hpi, Probe II

Row | Molecule | target (spectral count)
26 | B3 | 9
27 | B4 | 9
28 | B6 | 14

Same assay, conditions: type s_36_m; uninfected-probe control, 36 hpi, Probe II

Row | Molecule | background (spectral count)
29 | B3 | 1
30 | B4 | 1
31 | B6 | 1

Each molecule was assayed on gRNA of HCoV-OC43. Conditions: type g_36_m; HCoV-OC43-infected HCT-8 cells, 36 hpi, Probe I.
Assay type: binding

Row | Molecule | target (spectral count)
32 | B2 | 15
33 | B5 | 20
34 | B6 | 12

Same assay, conditions: type g_36_m; uninfected-probe control, 36 hpi, Probe I

Row | Molecule | background (spectral count)
35 | B2 | 2
36 | B5 | 2
37 | B6 | 1

Same assay, conditions: type n_48_v: 48 hours post-infection, infected cells, OC43 Probe I; unweighted spectral count

Row | Molecule | target (spectral count, OC43 Probe I RNP capture)
38 | B1 | 65
39 | B2 | 22
40 | B3 | 8
41 | B4 | 11
42 | B5 | 19
43 | B6 | 20

Same assay, conditions: type n_48_v: 48 hours post-infection, no-probe control on infected cells

Row | Molecule | background (spectral count, no-probe control)
44 | B1 | 7
45 | B2 | 2
46 | B3 | 1
47 | B4 | 1
48 | B5 | 2
49 | B6 | 1

What follows are molecules tested on SARS-CoV-2 gRNA and sgRNAs. Conditions: Probe II capture; […]; LC-MS/MS LFQ.
Assay type: binding

Row | Molecule | target (unweighted spectral count in RNP capture)
50 | B1 | 53
51 | B2 | 44
52 | B3 | 7
53 | B4 | 25
54 | B5 | 10
55 | B6 | 10

Same assay, conditions: no-probe control pull-down, used as background for Probe II

Row | Molecule | background (unweighted spectral count in control)
56 | B1 | 1
57 | B2 | 1
58 | B3 | 1
59 | B4 | 1
60 | B5 | 1
61 | B6 | 1

Each molecule was assayed on SARS-CoV-2 gRNA. Conditions: […]; LC-MS/MS; Probe I sample (first 199 lines of Table 2).
Assay type: binding

Row | Molecule | target (unweighted spectral count of the protein in the RNP capture)
62 | B1 | 71
63 | B2 | 74
64 | B3 | 9
65 | B4 | 10
66 | B5 | 9
67 | B6 | 7
